Results reported in US20220204580A1 (AstraZeneca / MedImmune, published 2022).
Numbered stars: 1 amine (or outer) side, 2 acyl side, 3 side chain; on linkers, the order of the positions; unused ones are H or OH. Bridge positions count the residues as written; N and C are the ends. Square brackets hold non-standard residues; d marks the D form. Side chains are listed from the residue outwards. Ends that are not written are not given here. * marks the point of attachment. C18 diacid = O=C(O)CCCCCCCCCCCCCCCCC(=O)*; γGlu = O=C(O)[C@H](CCC(=O)[*:2])N[*:1]; Dab = NCC[C@H](N)C(=O)O; Aib = CC(C)(N)C(=O)O

T1: human amylin receptor (calcitonin receptor co-expressed with receptor activity modifying protein, RAMP3) (human, UniProt P30988 25-474; O60896 24-148)
T1 sequence (looked up) 1: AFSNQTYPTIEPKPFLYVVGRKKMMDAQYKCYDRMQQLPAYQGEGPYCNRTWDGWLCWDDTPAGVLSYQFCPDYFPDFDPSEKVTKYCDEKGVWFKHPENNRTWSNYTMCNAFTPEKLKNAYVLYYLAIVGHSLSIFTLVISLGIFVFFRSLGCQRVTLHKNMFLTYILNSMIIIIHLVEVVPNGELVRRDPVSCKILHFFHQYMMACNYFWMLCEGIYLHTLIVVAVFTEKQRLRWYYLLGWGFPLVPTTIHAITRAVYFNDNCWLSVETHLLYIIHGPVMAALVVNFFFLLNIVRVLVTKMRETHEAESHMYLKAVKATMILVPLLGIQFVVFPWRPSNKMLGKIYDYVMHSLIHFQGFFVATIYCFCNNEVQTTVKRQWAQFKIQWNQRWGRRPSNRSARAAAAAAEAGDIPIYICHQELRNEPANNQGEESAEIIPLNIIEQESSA
T1 sequence (looked up) 2: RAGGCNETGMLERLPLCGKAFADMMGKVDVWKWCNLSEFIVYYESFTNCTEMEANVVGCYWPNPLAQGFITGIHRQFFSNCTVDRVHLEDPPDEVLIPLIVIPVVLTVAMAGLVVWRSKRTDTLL

T2: human calcitonin receptor (human, UniProt P30988 25-474)
T2 sequence (looked up): T1 sequence (looked up) 1

T3: rat calcitonin receptor (rat, UniProt P32214 25-516)
T3 sequence (looked up): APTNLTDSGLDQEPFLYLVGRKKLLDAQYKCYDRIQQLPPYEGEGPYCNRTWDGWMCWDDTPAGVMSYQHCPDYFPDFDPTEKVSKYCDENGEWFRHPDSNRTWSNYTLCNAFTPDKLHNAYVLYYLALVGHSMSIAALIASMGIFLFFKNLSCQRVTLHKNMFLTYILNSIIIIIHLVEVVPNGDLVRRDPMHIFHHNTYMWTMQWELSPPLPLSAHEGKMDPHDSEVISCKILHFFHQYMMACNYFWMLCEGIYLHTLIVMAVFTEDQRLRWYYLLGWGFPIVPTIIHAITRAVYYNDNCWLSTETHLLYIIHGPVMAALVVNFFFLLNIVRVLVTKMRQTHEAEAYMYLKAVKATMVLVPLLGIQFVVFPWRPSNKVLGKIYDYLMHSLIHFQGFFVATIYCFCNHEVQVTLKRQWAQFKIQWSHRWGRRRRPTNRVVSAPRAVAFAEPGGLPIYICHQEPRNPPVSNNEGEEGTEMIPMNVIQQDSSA

T4: rat amylin receptor (calcitonin receptor co-expressed with receptor activity modifying protein, RAMP3) (rat, UniProt P32214 25-516; Q9JJ73 23-147)
T4 sequence (looked up) 1: T3 sequence (looked up)
T4 sequence (looked up) 2: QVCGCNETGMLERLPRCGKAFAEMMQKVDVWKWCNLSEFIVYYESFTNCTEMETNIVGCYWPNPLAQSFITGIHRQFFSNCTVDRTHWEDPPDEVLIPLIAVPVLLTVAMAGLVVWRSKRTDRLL

B1: Peptide 35 (SEQ ID NO: 35) (peptide)
peptide: K([γGlu-C18 diacid])KCNTATCATQRLANFLVHSS[Aib]NFGPILPPTNVGSNTY-NH2
modifications: disulfide 3-8; N-terminus assumed
SMILES: CC[C@H](C)[C@H](NC(=O)[C@@H]1CCCN1C(=O)CNC(=O)[C@H](Cc1ccccc1)NC(=O)[C@H](CC(N)=O)NC(=O)C(C)(C)NC(=O)[C@H](CO)NC(=O)[C@H](CO)NC(=O)[C@H](Cc1c[nH]cn1)NC(=O)[C@@H](NC(=O)[C@H](CC(C)C)NC(=O)[C@H](Cc1ccccc1)NC(=O)[C@H](CC(N)=O)NC(=O)[C@H](C)NC(=O)[C@H](CC(C)C)NC(=O)[C@H](CCCNC(=N)N)NC(=O)[C@H](CCC(N)=O)NC(=O)[C@@H](NC(=O)[C@H](C)NC(=O)[C@@H]1CSSC[C@H](NC(=O)[C@H](CCCCN)NC(=O)[C@@H](N)CCCCNC(=O)CC[C@H](NC(=O)CCCCCCCCCCCCCCCCC(=O)O)C(=O)O)C(=O)N[C@@H](CC(N)=O)C(=O)N[C@@H]([C@@H](C)O)C(=O)N[C@@H](C)C(=O)N[C@@H]([C@@H](C)O)C(=O)N1)[C@@H](C)O)C(C)C)C(=O)N[C@@H](CC(C)C)C(=O)N1CCC[C@H]1C(=O)N1CCC[C@H]1C(=O)N[C@H](C(=O)N[C@@H](CC(N)=O)C(=O)N[C@H](C(=O)NCC(=O)N[C@@H](CO)C(=O)N[C@@H](CC(N)=O)C(=O)N[C@H](C(=O)N[C@@H](Cc1ccc(O)cc1)C(N)=O)[C@@H](C)O)C(C)C)[C@@H](C)O
B2: Peptide 38 (SEQ ID NO: 38) (peptide)
peptide: K([γGlu-C18 diacid])KCNTATCATQRLAEFLVHSS[Aib]NFGPILPPTNVGSNTY-NH2
modifications: disulfide 3-8; N-terminus assumed
SMILES: CC[C@H](C)[C@H](NC(=O)[C@@H]1CCCN1C(=O)CNC(=O)[C@H](Cc1ccccc1)NC(=O)[C@H](CC(N)=O)NC(=O)C(C)(C)NC(=O)[C@H](CO)NC(=O)[C@H](CO)NC(=O)[C@H](Cc1c[nH]cn1)NC(=O)[C@@H](NC(=O)[C@H](CC(C)C)NC(=O)[C@H](Cc1ccccc1)NC(=O)[C@H](CCC(=O)O)NC(=O)[C@H](C)NC(=O)[C@H](CC(C)C)NC(=O)[C@H](CCCNC(=N)N)NC(=O)[C@H](CCC(N)=O)NC(=O)[C@@H](NC(=O)[C@H](C)NC(=O)[C@@H]1CSSC[C@H](NC(=O)[C@H](CCCCN)NC(=O)[C@@H](N)CCCCNC(=O)CC[C@H](NC(=O)CCCCCCCCCCCCCCCCC(=O)O)C(=O)O)C(=O)N[C@@H](CC(N)=O)C(=O)N[C@@H]([C@@H](C)O)C(=O)N[C@@H](C)C(=O)N[C@@H]([C@@H](C)O)C(=O)N1)[C@@H](C)O)C(C)C)C(=O)N[C@@H](CC(C)C)C(=O)N1CCC[C@H]1C(=O)N1CCC[C@H]1C(=O)N[C@H](C(=O)N[C@@H](CC(N)=O)C(=O)N[C@H](C(=O)NCC(=O)N[C@@H](CO)C(=O)N[C@@H](CC(N)=O)C(=O)N[C@H](C(=O)N[C@@H](Cc1ccc(O)cc1)C(N)=O)[C@@H](C)O)C(C)C)[C@@H](C)O
B3: Peptide 40 (SEQ ID NO: 40) (peptide)
peptide: K([γGlu-C18 diacid])KCNTATCATQRLANFLVHSS[Aib]NFGPILPPTHVGSNTY-NH2
modifications: disulfide 3-8; N-terminus assumed
SMILES: CC[C@H](C)[C@H](NC(=O)[C@@H]1CCCN1C(=O)CNC(=O)[C@H](Cc1ccccc1)NC(=O)[C@H](CC(N)=O)NC(=O)C(C)(C)NC(=O)[C@H](CO)NC(=O)[C@H](CO)NC(=O)[C@H](Cc1c[nH]cn1)NC(=O)[C@@H](NC(=O)[C@H](CC(C)C)NC(=O)[C@H](Cc1ccccc1)NC(=O)[C@H](CC(N)=O)NC(=O)[C@H](C)NC(=O)[C@H](CC(C)C)NC(=O)[C@H](CCCNC(=N)N)NC(=O)[C@H](CCC(N)=O)NC(=O)[C@@H](NC(=O)[C@H](C)NC(=O)[C@@H]1CSSC[C@H](NC(=O)[C@H](CCCCN)NC(=O)[C@@H](N)CCCCNC(=O)CC[C@H](NC(=O)CCCCCCCCCCCCCCCCC(=O)O)C(=O)O)C(=O)N[C@@H](CC(N)=O)C(=O)N[C@@H]([C@@H](C)O)C(=O)N[C@@H](C)C(=O)N[C@@H]([C@@H](C)O)C(=O)N1)[C@@H](C)O)C(C)C)C(=O)N[C@@H](CC(C)C)C(=O)N1CCC[C@H]1C(=O)N1CCC[C@H]1C(=O)N[C@H](C(=O)N[C@@H](Cc1c[nH]cn1)C(=O)N[C@H](C(=O)NCC(=O)N[C@@H](CO)C(=O)N[C@@H](CC(N)=O)C(=O)N[C@H](C(=O)N[C@@H](Cc1ccc(O)cc1)C(N)=O)[C@@H](C)O)C(C)C)[C@@H](C)O
B4: Peptide 41 (SEQ ID NO: 41) (peptide)
peptide: K([γGlu-C18 diacid])KCNTATCATQRLANFLVHSS[Aib]NFGPILPPTEVGSNTY-NH2
modifications: disulfide 3-8; N-terminus assumed
SMILES: CC[C@H](C)[C@H](NC(=O)[C@@H]1CCCN1C(=O)CNC(=O)[C@H](Cc1ccccc1)NC(=O)[C@H](CC(N)=O)NC(=O)C(C)(C)NC(=O)[C@H](CO)NC(=O)[C@H](CO)NC(=O)[C@H](Cc1c[nH]cn1)NC(=O)[C@@H](NC(=O)[C@H](CC(C)C)NC(=O)[C@H](Cc1ccccc1)NC(=O)[C@H](CC(N)=O)NC(=O)[C@H](C)NC(=O)[C@H](CC(C)C)NC(=O)[C@H](CCCNC(=N)N)NC(=O)[C@H](CCC(N)=O)NC(=O)[C@@H](NC(=O)[C@H](C)NC(=O)[C@@H]1CSSC[C@H](NC(=O)[C@H](CCCCN)NC(=O)[C@@H](N)CCCCNC(=O)CC[C@H](NC(=O)CCCCCCCCCCCCCCCCC(=O)O)C(=O)O)C(=O)N[C@@H](CC(N)=O)C(=O)N[C@@H]([C@@H](C)O)C(=O)N[C@@H](C)C(=O)N[C@@H]([C@@H](C)O)C(=O)N1)[C@@H](C)O)C(C)C)C(=O)N[C@@H](CC(C)C)C(=O)N1CCC[C@H]1C(=O)N1CCC[C@H]1C(=O)N[C@H](C(=O)N[C@@H](CCC(=O)O)C(=O)N[C@H](C(=O)NCC(=O)N[C@@H](CO)C(=O)N[C@@H](CC(N)=O)C(=O)N[C@H](C(=O)N[C@@H](Cc1ccc(O)cc1)C(N)=O)[C@@H](C)O)C(C)C)[C@@H](C)O
B5: Peptide 34 (SEQ ID NO: 34) (peptide)
peptide: K([γGlu-C18 diacid])KCNTATCATQRLA[Dab]FLVHSSNNFGPILPPTEVGSNTY-NH2
modifications: disulfide 3-8; N-terminus assumed
SMILES: CC[C@H](C)[C@H](NC(=O)[C@@H]1CCCN1C(=O)CNC(=O)[C@H](Cc1ccccc1)NC(=O)[C@H](CC(N)=O)NC(=O)[C@H](CC(N)=O)NC(=O)[C@H](CO)NC(=O)[C@H](CO)NC(=O)[C@H](Cc1c[nH]cn1)NC(=O)[C@@H](NC(=O)[C@H](CC(C)C)NC(=O)[C@H](Cc1ccccc1)NC(=O)[C@H](CCN)NC(=O)[C@H](C)NC(=O)[C@H](CC(C)C)NC(=O)[C@H](CCCNC(=N)N)NC(=O)[C@H](CCC(N)=O)NC(=O)[C@@H](NC(=O)[C@H](C)NC(=O)[C@@H]1CSSC[C@H](NC(=O)[C@H](CCCCN)NC(=O)[C@@H](N)CCCCNC(=O)CC[C@H](NC(=O)CCCCCCCCCCCCCCCCC(=O)O)C(=O)O)C(=O)N[C@@H](CC(N)=O)C(=O)N[C@@H]([C@@H](C)O)C(=O)N[C@@H](C)C(=O)N[C@@H]([C@@H](C)O)C(=O)N1)[C@@H](C)O)C(C)C)C(=O)N[C@@H](CC(C)C)C(=O)N1CCC[C@H]1C(=O)N1CCC[C@H]1C(=O)N[C@H](C(=O)N[C@@H](CCC(=O)O)C(=O)N[C@H](C(=O)NCC(=O)N[C@@H](CO)C(=O)N[C@@H](CC(N)=O)C(=O)N[C@H](C(=O)N[C@@H](Cc1ccc(O)cc1)C(N)=O)[C@@H](C)O)C(C)C)[C@@H](C)O

Target: T1, human amylin receptor (calcitonin …)
Assay: cell-based or functional assay

B1 and B2 are within 1.5-fold of each other in “EC50 (cAMP production)” value: 0.259 nM for the first, 0.19 nM for the second.

B3 and B4 are within 1.5-fold of each other in “EC50 (cAMP production)” value: 0.228 nM for the first, 0.178 nM for the second.

For B5, the “EC50 (cAMP production)” value was 0.877 nM.

Compared with B1, B2 is lower in “Ratio (EC50 hCTR / EC50 hAMYR3)” value: 55 for the first, 6 for the second.

First: B3
Second: B4
The “Ratio (EC50 hCTR / EC50 hAMYR3)” value of the first is higher: 15 for the first, 7 for the second.

In the case of B5, the “Ratio (EC50 hCTR / EC50 hAMYR3)” value is reported as 20.

Target: T2, human calcitonin receptor
Assay: cell-based or functional assay

Compared with B1, B2 is 14-fold lower in “EC50 (cAMP production)” value: 14.2 nM for the first, 1.05 nM for the second.

First: B3
Second: B4
The “EC50 (cAMP production)” value of the first is 2.8-fold higher: 3.33 nM for the first, 1.18 nM for the second.

In the case of B5, the “EC50 (cAMP production)” value is reported as 17.7 nM.

Target: T3, rat calcitonin receptor
Assay: cell-based or functional assay

Compared with B1, B2 is 25-fold lower in “EC50 (cAMP production)” value: 0.514 nM for the first, 0.0203 nM for the second.

B3 and B4 are within 1.5-fold of each other in “EC50 (cAMP production)” value: 0.782 nM for the first, 0.925 nM for the second.

Target: T4, rat amylin receptor (calcitonin …)
Assay: cell-based or functional assay

B1 and B2 are within 1.5-fold of each other in “EC50 (cAMP production)” value: 0.0059 nM for the first, 0.0051 nM for the second.

B3 and B4 are within 1.5-fold of each other in “EC50 (cAMP production)” value: 0.012 nM for the first, 0.0082 nM for the second.
